Data: the DeepSol protein solubility set

Test: soluble on expression in E. coli; label from the status in PepcDB or PDB records

Sequence | soluble on expression in E. coli
MNSRIPEDLIERAHRGKTTKEDALLLLEVPPFELFRFADELRDLAAGDTVTYVVNRNINFTSRCTGSCGFCAFRTDDGKVLSIEEIMEKVREAEKANATEVCIQGGLLPDVGLDFYQGIVEAIKAEFPEMHVHSFSPMEVYHASRISEIPVKESLRRLKRSGLDTMPGTAAEILSDRVRKIICPAKLNTAEWIEVVTQAHAAGIPTTATMMYGHVETPEERINHMLTIREIQKETGGITEFVPLPFMPYNNPVGEKMIKEGRYATPGLEDLKVYAVSRILFHGHVDNIQASWVKLGKKFAQFSLHCGVNDLGGTLMEESISRSAGACHGEMITVDELEWMIHGAGRIPKERTTLYREAHELASRNSRKIAGCGAFE | not soluble
MNSSLSLLHPYPFEKLNVLFKDVTPADLPLIPLSIGEPKHPAPEFVKQAIIDNFNHLSTYPNSKGLPELRESIARWLTQRFQLNHISSEDHILPVTGTREGIFSFVQALINRDEAPYVVMPNPFYQIYEGATLLAGAKPYFINCTAENDYLGDFDAVPSEVWEKTALLFVCTPGNPTGAVLSKEKLKKLIQLSDQYNFVIASDECYSELWFDQAPVGLLEVCAEIGRDNYKNCIVFHSLSKRSNLPGMRSGFVAGDAELLKPYLKFRTYHGAAMPVQHQLASIAAWNDEAHVEENRQQYRAKFNLFQSELGQLIPLKKPDAGFYYWLHVDNDEAFAKMLMEKAHIKVLPGRYLSRETEQGNPGENHVRMALVADLAQCEQVVQRLKKVL | not soluble
MNTEVIHYIIRFLIGDESGNDQLLSRIGYTSKQSEMSRYSIVIRASNFFDSDIYGTDKAFPLLPLKEWEGVPLLFGEPTEELLEESDTLVLNADIVASTYFLISRYEEMYRRKLRDIHGRFPGRESLPFKAGFLQRPVVDEYGAILRTKIRQMGWPVKDPVPHFSMVNLTHDVDEPFEYRGWRSFARALIKERKSPFKAFRLAYANPASDRFFTFPRFVDWDKILRSKMPDCCRIIFFFKAPGKAPQDAPNYSLRKPLYQSLRSLVKNNGIVIGLHSNYSAGLNPELIGKQRKRLMSDTDMAVDCNRHHYLAAREPEDMQALISAGIRHDYTMGYADVAGFRLGTSRPVRFIMPSTRRLTELILHPLTLMDCTLHRQEYMGLDEATAIELCKELLMHTFIHGGEATLLWHNEYLSRDIHPWHARLYREVLRLIETMEEKQEEESFDYETAIDQ | not soluble
MNTGHDGALAYDEPIYLSDGNIINIGEFVDKFFKKYKNSIKKEDNGFGWIDIGNENIYIKSFNKLSLIIEDKRILRVWRKKYSGKLIKITTKNRREITLTHDHPVYISKTGEVLEINAEMVKVGDYIYIPKNNTINLDEVIKVETVDYNGHIYDLTVEDNHTYIAGKNEGFAVSASSGTLHHHHHH | soluble
MNTICKMRDIYKALSIFETAFEEVYGISLNEAMVLCALREAGKEITSTAIAERTEMAPSHTSKVIRAVEDKGLIRRALGEVDKRQMYFSLTEAGKKRLNELDLDKVEIPEMLKPLI | not soluble
MNTINANDLKTRGIAAIEAQLEEQPEAIIAVRGKDRYVVMQLEHYYYLRECELTAALAETRADLAAGRCEQESPEAHLARLDTLK | not soluble
MNTKPQLTLLKVQASYRGDPTTLFHQLCGARPATLLLESAEINDKQNLQSLLVIDSALRITALGHTVSVQALTANGPALLPLLDEALPPEVRNQARPNGRELTFPAIDAVQDEDARLRSLSVFDALRTILTLVDSPADEREAVMLGGLFAYDLVAGFENLPALRQDQRCPDFCFYLAETLLVLDHQRGSARLQASVFSEQASEAQRLQHRLEQLQAELQQPPQPIPHQKLENMQLSCNQSDEEYGAVVSELQEAIRQGEIFQVVPSRRFSLPCPAPLGPYQTLKDNNPSPYMFFMQDDDFTLFGASPESALKYDAGNRQIEIYPIAGTRPRGRRADGSLDLDLDSRIELEMRTDHKELAEHLMLVDLARNDLARICQAGSRYVADLTKVDRYSFVMHLVSRVVGTLRADLDVLHAYQACMNMGTLSGAPKVRAMQLIAALRSTRRGSYGGRVGYFTAVRNLDTCIVIRSAYVEDGHRTVQAGAGVVQDSIPEREADETRNKARAVLRAIATAHHAKEVF | soluble
MNTMLFSPYTIRGLTLKNRIVMSPMCMYSCDTKDGAVRTWHKIHYPARAVGQVGLIIVEATGVTPQGRISERDLGIWSDDHIAGLRELVGLVKEHGAAIGIQLAHAGRKSQVPGEIIAPSAVPFDDSSPTPKEMTKADIEETVQAFQNGARRAKEAGFDVIEIHAAHGYLINEFLSPLSNRRQDEYGGSPENRYRFLGEVIDAVREVWDGPLFVRISASDYHPDGLTAKDYVPYAKRMKEQGVDLVDVSSGAIVPARMNVYPGYQVPFAELIRREADIPTGAVGLITSGWQAEEILQNGRADLVFLGRELLRNPYWPYAAARELGAKISAPVQYERGWRF | soluble
MNTSILAPPESLLEAQKVRLAIREGYDRPTAGMANGLTQVNMISVPQDWAYDFLLYTQRNPQSCPVLDVIDAGQFQSRLIQDKQHDIRTDFPRYRIWEYGQCVDEVNDATSIWNNHPDLVTFLIGCSFSFESALLNAGIEVRHITDQRNVPMYLSNIPCASAGRISGNMVVSMRPIPAAQVSQAVQITAKMPRVHGAPVHIGDPKSLGIADLSKPDFGDFPRILDGEIPVFWACGVTPQAAVMRSKVPFAISHAPGYMLITDVPDQAWMLLEHHHHHH | not soluble
MNTTLFRWPVRVYYEDTDAGGVVYHASYVAFYERARTEMLRHHHFSQQALMAERVAFVVRKMTVEYYAPARLDDMLEIQTEITSMRGTSLVFTQRIVNAENTLLNEAEVLVVCVDPLKMKPRALPKSIVAEFKQ | soluble
MNTVADVMAGNDGEYCFHARTGKYGVYLKQDWRNEYNVGDIAVYEDSKPGTLNDFLIAPDEGDLKPDVVKRFEEMVAQAQQSAGAAAGNAQQTAQDVAAAATARDDAQRFAEKARQDATVTAEDRKATAEDVTSTGANAAAAGQSAQDAAGYARAAEQAKNDIDAALTGTLKTANHLSETAAAGEKAQQKSRDNLGLKSAATMEAQSDIYDRTKGRLAIPGAFGFGCAFLPEDVIRFDTKSDFLAWVRNALPGEYSVAGPYGIIIPDTRFEGVLSIRWTDARPETTEPRYRAKSLTFYGINGPIYHTRYCYWPISRLTGWVKINITTEDIIYRIVASSVRNRWGDPDIGGLIIAAYQGEADGDKVIRLVRGQSYRGSRLGPVGISVPGTPTGTYIVSPQFFITGCSEHSLPGSYCALSGVPDAHVSGAMPGLFIRTSRGMHRGN | not soluble
MNTVSPAKKKVIIIGAGIAGLKAASTLHQNGIQDCLVLEARDRVGGRLQTVTGYQGRKYDIGASWHHDTLTNPLFLEEAQLSLNDGRTRFVFDDDNFIYIDEERGRVDHDKELLLEIVDNEMSKFAELEFHQHLGVSDCSFFQLVMKYLLQRRQFLTNDQIRYLPQLCRYLELWHGLDWKLLSAKDTYFGHQGRNAFALNYDSVVQRIAQSFPQNWLKLSCEVKSITREPSKNVTVNCEDGTVYNADYVIITVPQSVLNLSVQPEKNLRGRIEFQPPLKPVIQDAFDKIHFGALGKVIFEFEECCWSNESSKIVTLANSTNEFVEIVRNAENLDELDSMLEREDSQKHTSVTCWSQPLFFVNLSKSTGVASFMMLMQAPLTNHIESIREDKERLFSFFQPVLNKIMKCLDSEDVIDGMRPIENIANANKPVLRNIIVSNWTRDPYSRGAYSACFPGDDPVDMVVAMSNGQDSRIRFAGEHTIMDGAGCAYGAWESGRREATRISDLLKLEHHHHHH | soluble
MNVEINGKSLELSFGFKFLREIDNRLGLKVEQASIGQGVSMLPVGLESGNPVVIGEVLIASTSHLKKQAITINNIDEALDEIAENIGLEEFGSDILTELGKRPMTRNLVEVVETEEKPAEALEHHHHHH | not soluble
MNVLICQQPKELVWKQREIPIPGDNEALIKIKSVGICGTDIHAWGGNQPFFSYPRVLGHEICGEIVGLGKNIADLKNGQQVAVIPYVACQQCPACKSGRTNCEKISVIGVHQDGGFSEYLSVPVANILPADGIDPQAAALIEPFAISAHAVRRAAIAPGEQVLVVGAGPIGLGAAAIAKADGAQVVVADTSPARREHVATRLELPLLDPSAEDFDAQLRAQFGGSLAQKVIDATGNQHAMNNTVNLIRHGGTVVFVGLFKGELQFSDPEFHKKETTMMGSRNATPEDFAKVGRLMAEGKITADMMLTHRYPFATLAETYERDVINNRELIKGVITF | not soluble
MNVLIVGSGGREHALAWKMKQSPKVKNVIVAPGNGGHSERIDINSNDLDAVADFCEKHNIHCVLIGPEEPLSNGLADHLIRIHPNLMVFGPLKDGAQLETSKSFSKHFMKEYGLPTADFVTVSIENVKSLDCVFERLPWKNSVVKADGLAAGKGVIIPRNNAEAVEAARSILHGQFGNAGRTVIIEERLEGYEVSALAFTDGISFKRMPLGKDHKRLLESDLGPNTGMGVVAPVSVPKEVDRQIDEIFEKTLKGLADRKIKYCGVLYAGFMIVDQKPLLLEFNCRFGDPETQVLMRLLESDLFEIISSCVNQTLNTCDINWSTKSVCGVVLASGNYPKSGDKGSPITEIPSPDSTNVVFHAGTSVINSQIVTNGGRILCVTSLADTLHDAREHANKIAQNIQFTGKQFRKDIGKTIDIGTPSLSYGSSGVNIDEGNQFVEDIKLLVKKTLLPGAAQIGGFGAVLDLKKAGFSNDSQLVVGIDGVGTKIEVATHCNNFTGVGYDVVAMCVNDVICHCAKPIAFLDYFVCGKLERSMATQVLTSISEACVEAECSLIGGETAEMPGVYSTHQWDLAGCAIAARESTWPMLPLSSEIRDGDVILGLPSSGLHSNGFSLARKILTVNGVKYNDPLPWDSKSTFGTELLRGTKLYVKKVLPLLSTGLVKGCAHITGGGLTENAIRVLDKNSKDSLVIDCASWKFREIFNWMAAAGPVDTKEMIRTFNCGIGMVLIVSPDNVEKVKKQLRKHEEEFYEIGHVENSKNGEAIKFVNEEKMFQREKYTTQRKRVRVAILISGTGTNMQKLIERSKTPDSNCDVVLVVSNKEGAGGLTIAASYGIPTKVVPHTADRVTGDTELAQVLKDFGTELVCLGGYMRILSPCFISQFPSRIINIHPSLLPAFKGAHALQDALNFGVRIVGCTAHFVDELVDHGDIIAQRPVVVEDTDTIETVRQKIQLQEHEMFPNAMIAVAAKILEK | not soluble
MNVLKQQITASIAKDIAFRLGAELNDEEADIFADGYNAAMLQNCNVVTSGKPLTITLPDTSSKAFWSSTGKNETFHPETYKRQVKEAIERSCVIAGIGVEVK | not soluble
MNVPSTSSTRGYAKYQIRSSGMPRVLANESDVFTLDDVDVDEETDELKPNRITITKEEEKSRLVECNLDSDEEEDKTPPKEDDKGQNIRLSSKNSSTVESKERCRLRDSFDLDNDDSLSDDLDLLPPIPGAPNANSSLCSKLHRFNCCNPRIPSKCTIM | soluble
MNVTFETTICAWDEKIPALLIRLVNTLLFCRTEEELRQSINKLRETAELDEFFTYGYGSHHFWCNQRISKGSMQFIQSRLFIATF | not soluble
MNVTIYDVAREASVSMATVSRVVNGNPNVKPSTRKKVLETIERLGYRPNAVARGLASKKTTTVGVIIPDISNIFYAELARGIEDIASMYKYNIILSNSDQNQDKQLHLLNNMLGKQVDGIIFMSGNVTEEHVEELKKSPVPVVLAASIESTNQIPSVTIDYEQAAFDAVQSLIDSGHKNIAFVSGTLEEPINHAKKVKGYKRALTESGLPVRDSYIVEGDYTYDSGIEAVEKLLEEDEKPTAIFVGTDEMALGVIHGAQDRGLNVPNDLEIIGFDNTRLSTMVRPQLTSVVQPMYDIGAVAMRLLTKYMNKETVDSSIVELPHRIEFRQSTK | soluble
MNVVLVGTDPNGLTDALEAEGHTVMVADVGNRPGLEEAGIHEADVYLLTEMSQATSIAVAKDLNPDLRVVVYAEGSLPDFASRQTDLVVDPDLLGSDAVAEEL | not soluble
